Test results as given in the supplement of paper PMC10567573.

B1: TAF7L (parent)
chain: PDVENEVKRLLRSDAEAVSTRWEV

Variants of: B1
Assay: protein stability index of a GFP-peptide fusion (GPS, HEK-293T) (PSI 1-6); higher = more stable
Conditions: c terminus: a fixed tail appended
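Note: lentivirally expressed fusions sorted by FACS into six bins by GFP to DsRed ratio, PSI derived from sequencing read proportions per bin multiplied by bin number.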

Variant	protein stability index
PHVENEVKRLLRSDAEAVSTRWEV [D2H]	2.69
PIVENEVKRLLRSDAEAVSTRWEV [D2I]	1.94
PKVENEVKRLLRSDAEAVSTRWEV [D2K]	3.71
PLVENEVKRLLRSDAEAVSTRWEV [D2L]	2.56
PMVENEVKRLLRSDAEAVSTRWEV [D2M]	3.13
PPVENEVKRLLRSDAEAVSTRWEV [D2P]	3.58
PQVENEVKRLLRSDAEAVSTRWEV [D2Q]	2.62
PTVENEVKRLLRSDAEAVSTRWEV [D2T]	2.59
PVVENEVKRLLRSDAEAVSTRWEV [D2V]	3.2
PYVENEVKRLLRSDAEAVSTRWEV [D2Y]	2.81
PDCENEVKRLLRSDAEAVSTRWEV [V3C]	3.75
PDDENEVKRLLRSDAEAVSTRWEV [V3D]	4.13
PDEENEVKRLLRSDAEAVSTRWEV [V3E]	4.74
PDFENEVKRLLRSDAEAVSTRWEV [V3F]	3.32
PDGENEVKRLLRSDAEAVSTRWEV [V3G]	3.05
PDHENEVKRLLRSDAEAVSTRWEV [V3H]	3.86
PDKENEVKRLLRSDAEAVSTRWEV [V3K]	4.4
PDMENEVKRLLRSDAEAVSTRWEV [V3M]	3.5
PDNENEVKRLLRSDAEAVSTRWEV [V3N]	3.09
PDPENEVKRLLRSDAEAVSTRWEV [V3P]	4.43
PDQENEVKRLLRSDAEAVSTRWEV [V3Q]	3.79
PDSENEVKRLLRSDAEAVSTRWEV [V3S]	3.13
PDTENEVKRLLRSDAEAVSTRWEV [V3T]	3.99
PDVANEVKRLLRSDAEAVSTRWEV [E4A]	4.39

Variant	protein stability index
PDVCNEVKRLLRSDAEAVSTRWEV [E4C]	2.38
PDVDNEVKRLLRSDAEAVSTRWEV [E4D]	2.19
PDVFNEVKRLLRSDAEAVSTRWEV [E4F]	1
PDVGNEVKRLLRSDAEAVSTRWEV [E4G]	2.92
PDVKNEVKRLLRSDAEAVSTRWEV [E4K]	3.35
PDVMNEVKRLLRSDAEAVSTRWEV [E4M]	1.69
PDVNNEVKRLLRSDAEAVSTRWEV [E4N]	3.05
PDVPNEVKRLLRSDAEAVSTRWEV [E4P]	3.86
PDVQNEVKRLLRSDAEAVSTRWEV [E4Q]	3.21
PDVTNEVKRLLRSDAEAVSTRWEV [E4T]	3.17
PDVVNEVKRLLRSDAEAVSTRWEV [E4V]	2.76
PDVWNEVKRLLRSDAEAVSTRWEV [E4W]	1.93
PDVYNEVKRLLRSDAEAVSTRWEV [E4Y]	3.14
PDVEAEVKRLLRSDAEAVSTRWEV [N5A]	3.79
PDVEFEVKRLLRSDAEAVSTRWEV [N5F]	2.62
PDVEKEVKRLLRSDAEAVSTRWEV [N5K]	3.21
PDVELEVKRLLRSDAEAVSTRWEV [N5L]	2.82
PDVEMEVKRLLRSDAEAVSTRWEV [N5M]	2.81
PDVEPEVKRLLRSDAEAVSTRWEV [N5P]	3.57
PDVEQEVKRLLRSDAEAVSTRWEV [N5Q]	3.07
PDVESEVKRLLRSDAEAVSTRWEV [N5S]	2.03
PDVEWEVKRLLRSDAEAVSTRWEV [N5W]	2.95
PDVEYEVKRLLRSDAEAVSTRWEV [N5Y]	3.1
PDVENCVKRLLRSDAEAVSTRWEV [E6C]	2.9

Variant	protein stability index
PDVENGVKRLLRSDAEAVSTRWEV [E6G]	3.25
PDVENHVKRLLRSDAEAVSTRWEV [E6H]	2.9
PDVENKVKRLLRSDAEAVSTRWEV [E6K]	3.17
PDVENMVKRLLRSDAEAVSTRWEV [E6M]	2.05
PDVENNVKRLLRSDAEAVSTRWEV [E6N]	3.12
PDVENPVKRLLRSDAEAVSTRWEV [E6P]	4.02
PDVENRVKRLLRSDAEAVSTRWEV [E6R]	3.65
PDVENSVKRLLRSDAEAVSTRWEV [E6S]	3.21
PDVENECKRLLRSDAEAVSTRWEV [V7C]	3.07
PDVENEGKRLLRSDAEAVSTRWEV [V7G]	4.2
PDVENEHKRLLRSDAEAVSTRWEV [V7H]	4.06
PDVENEIKRLLRSDAEAVSTRWEV [V7I]	2.73
PDVENEKKRLLRSDAEAVSTRWEV [V7K]	4.23
PDVENEMKRLLRSDAEAVSTRWEV [V7M]	3.47
PDVENENKRLLRSDAEAVSTRWEV [V7N]	2.94
PDVENEPKRLLRSDAEAVSTRWEV [V7P]	4.57
PDVENEQKRLLRSDAEAVSTRWEV [V7Q]	3.68
PDVENESKRLLRSDAEAVSTRWEV [V7S]	3.56
PDVENETKRLLRSDAEAVSTRWEV [V7T]	4.13
PDVENEWKRLLRSDAEAVSTRWEV [V7W]	3.13
PDVENEYKRLLRSDAEAVSTRWEV [V7Y]	3.31
PDVENEVCRLLRSDAEAVSTRWEV [K8C]	3.23
PDVENEVERLLRSDAEAVSTRWEV [K8E]	3.6
PDVENEVFRLLRSDAEAVSTRWEV [K8F]	2.2

Variant	protein stability index
PDVENEVHRLLRSDAEAVSTRWEV [K8H]	4.25
PDVENEVIRLLRSDAEAVSTRWEV [K8I]	2.51
PDVENEVMRLLRSDAEAVSTRWEV [K8M]	2.78
PDVENEVNRLLRSDAEAVSTRWEV [K8N]	3.08
PDVENEVPRLLRSDAEAVSTRWEV [K8P]	4.16
PDVENEVQRLLRSDAEAVSTRWEV [K8Q]	3.34
PDVENEVVRLLRSDAEAVSTRWEV [K8V]	3.44
PDVENEVWRLLRSDAEAVSTRWEV [K8W]	2.19
PDVENEVYRLLRSDAEAVSTRWEV [K8Y]	2.23
PDVENEVKCLLRSDAEAVSTRWEV [R9C]	3.39
PDVENEVKDLLRSDAEAVSTRWEV [R9D]	4.41
PDVENEVKFLLRSDAEAVSTRWEV [R9F]	2.69
PDVENEVKGLLRSDAEAVSTRWEV [R9G]	3.57
PDVENEVKHLLRSDAEAVSTRWEV [R9H]	4.05
PDVENEVKKLLRSDAEAVSTRWEV [R9K]	4.02
PDVENEVKLLLRSDAEAVSTRWEV [R9L]	3.29
PDVENEVKMLLRSDAEAVSTRWEV [R9M]	3.96
PDVENEVKNLLRSDAEAVSTRWEV [R9N]	3.66
PDVENEVKPLLRSDAEAVSTRWEV [R9P]	4.17
PDVENEVKQLLRSDAEAVSTRWEV [R9Q]	3.83
PDVENEVKTLLRSDAEAVSTRWEV [R9T]	3.44
PDVENEVKYLLRSDAEAVSTRWEV [R9Y]	2.41
PDVENEVKRFLRSDAEAVSTRWEV [L10F]	3.42
